Results on 7 molecules are retold here after US20230272055A1 (Incyte, published 2023).

Assay [1] deals with T1, human Type 1 mutCALR (52 bp deletion) (human).
T1 construct: also called human mutCALR Type 1; mutant CALR
T1 chain: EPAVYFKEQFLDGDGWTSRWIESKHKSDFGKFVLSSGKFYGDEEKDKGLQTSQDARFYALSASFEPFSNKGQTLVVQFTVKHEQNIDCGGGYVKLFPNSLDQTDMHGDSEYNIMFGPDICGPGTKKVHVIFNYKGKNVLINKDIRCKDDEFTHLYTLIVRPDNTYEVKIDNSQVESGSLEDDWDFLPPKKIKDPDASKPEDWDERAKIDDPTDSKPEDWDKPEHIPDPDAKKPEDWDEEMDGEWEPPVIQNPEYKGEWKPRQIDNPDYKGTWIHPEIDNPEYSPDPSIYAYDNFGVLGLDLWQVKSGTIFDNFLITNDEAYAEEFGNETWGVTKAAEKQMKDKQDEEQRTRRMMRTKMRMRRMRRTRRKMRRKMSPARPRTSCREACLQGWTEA
Briefly: flow cytometry on BaF3 cells stably expressing human MPL and human mutCALR Type 1, goat anti-human R-PE secondary, GMFI. As to the method: Approximately 200,000 cells/well were added to 96-well plates and stained with the indicated concentration of antibodies for 30 minutes on ice. Cells were then washed and stained with goat anti-human secondary conjugated to R-phycoerythrin (R-PE) (Jackson Immuno Research Laboratories) for 30 minutes on ice. The cells were then washed again and analyzed by flow cytometry.
(A flow cytometer gives signals particle by particle.)

The target of assay [2] is T2, Human Type 1 mutCALR (human).
T2 chain: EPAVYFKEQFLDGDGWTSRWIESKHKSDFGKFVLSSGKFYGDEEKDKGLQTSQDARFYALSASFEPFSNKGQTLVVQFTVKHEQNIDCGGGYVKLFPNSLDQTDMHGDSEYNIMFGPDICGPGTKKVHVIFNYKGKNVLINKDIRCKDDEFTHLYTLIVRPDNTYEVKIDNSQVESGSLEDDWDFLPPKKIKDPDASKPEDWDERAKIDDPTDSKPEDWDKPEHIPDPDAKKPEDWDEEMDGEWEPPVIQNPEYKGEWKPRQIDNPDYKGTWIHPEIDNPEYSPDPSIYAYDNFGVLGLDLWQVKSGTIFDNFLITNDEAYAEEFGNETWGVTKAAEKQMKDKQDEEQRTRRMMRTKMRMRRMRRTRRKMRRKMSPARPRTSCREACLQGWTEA
In words: cell-based or functional assay.

For assay [3], the target named is T2, Human Type 1 mutCALR. In words: cell-based or functional assay.
The target in assay [4] is T2, Human Type 1 mutCALR. In words: cell-based or functional assay.

B1: AB2: anti-mutCALR antibody including VH and VL regions of antibody B3 from WO2020175689 fused to human constant regions (antibody, human IgG1, kappa, V domains shown)
VH: QVQLQQSGAELVKPGSSVKISCKASGYTFTRNFIHWIKQQPGNGLEWIGWIFPGDGDTEYNQKFNGKATLTADKSSSTAYMQLSSLTSEDSAVYFCARGNYNYEYFDYWGQGVMVTVSS
VL: DIQMTQSPASLSASLGETVSIECLASEDIYSYLAWYQQKPGKSPQLLIFAANRLQDGVPSRFSGSGSGTQFSLKISGMQPEDEGDYFCLQGSKFPYTFGPGTKLELNR
For B1, the binding result in assay [1] is “binds”.

B2: anti-mutCALR antibody clone 32 (antibody, human IgG1, lambda, V domains shown)
VH: QVQLVQSGAEVKKPGATVKISCKVSGYSFTDYFIHWVQQAPGKGLAWVGLVDPEDGETIYAEKFQGRVTITADTSTDTAYMELSSLRSEDTAVYYCATPGGILTDPDAFDIWGQGTMVTVSS
VL: QSALTQPASVSGSPGQSITISCTGTSSDVGGYNYVSWYQQHPGKAPKLMIYEVSNRPSGVSNRFSGSKSGNTASLTISGLQAEDEADYYCSSYTSSSTPYVFGTGTKVTVLG
In the case of B2, in assay [2], the “Log IC50 of inhibition of cell proliferation, antibody + ruxolitinib (Ba/F3-TPOR/mutCALR type 1 cells); extrapolated from fitted curve” value was -0.586 Log IC50 (µg/mL) and the “Log IC50 of inhibition of cell proliferation, antibody alone (Ba/F3-TPOR/mutCALR type 1 cells); extrapolated from fitted curve” value was 0.18 Log IC50 (µg/mL). The “IC50 of inhibition of cell proliferation (Ba/F3 cells with MPL and mutCALR Type 1)” value in assay [3] was 0.225 µg/mL.

B3: anti-mutCALR antibody clone 36 (antibody, human IgG1, lambda, V domains shown)
VH: QVQLVQSGAEVKKPGATVKISCKVSGYSFTDYFIHWVQQAPGKGLAWVGLVDPEDGETIYAEKFQGRVTITADTSTDTAYMELSSLRSEDTAVYYCATPGGILTDPDAFDIWGQGTMVTVSS
VL: QSALTQPRSVSGSPGQSVTISCAGTGSDVGGYNYVSWYQHHPGKAPKLMIYDVNKRPSGVPDRFSGSKSGNTASLTISGLQAEDEADYYCSSYTSSSTFYVFGTGTKVTVLG
B3: the “Log IC50 of inhibition of cell proliferation, antibody + ruxolitinib (Ba/F3-TPOR/mutCALR type 1 cells); extrapolated from fitted curve” value in assay [2] is -3.88 Log IC50 (µg/mL). Moreover, in assay [3], the “IC50 of inhibition of cell proliferation (Ba/F3 cells with MPL and mutCALR Type 1)” value was 0.0905 µg/mL. Further, in assay [4], the “IC50 of inhibition of cell proliferation (BaF3 cells expressing MPL/mutCALR Type 1)” value was 0.98 µg/mL.

B4: anti-mutCALR antibody clone 35 (antibody, human IgG1, lambda, V domains shown)
VH: QVQLVQSGAEVKKPGATVKISCKVSGYSFTDYFIHWVQQAPGKGLAWVGLVDPEDGETIYAERFQGRVTITADTSTDTAYMELSSLRSEDTAVYYCATPGGILTDPDAFDIWGQGTMVTVSS
VL: QSALTQPASVSGSPGQSITISCTGTSSDVGGYNYVSWYQQHPGKAPKLMIYEVSNRPSGVSNRFSGSKSGNTASLTISGLQAEDEADYYCSSYTSSSTPYVFGTGTKVTVLG
On to B4, for which the “IC50 of inhibition of cell proliferation (Ba/F3 cells with MPL and mutCALR Type 1)” value in assay [3] is 0.088 µg/mL. In assay [4], the “IC50 of inhibition of cell proliferation (BaF3 cells expressing MPL/mutCALR Type 1)” value came to 2.18 µg/mL.

B5: anti-mutCALR antibody clone 37 (antibody, human IgG1, lambda, V domains shown)
VH: QVQLVQSGAEVKKPGATVKISCKVSGYSFTDYFIHWVQQAPGKGLAWVGLVDPEDGETIYAEKFQGRVTITADTSTDTAYMELSSLRSEDTAVYYCATPGGILTDPDAFDIWGQGTMVTVSS
VL: QSALTQPASVSGSPGQSITISCTGTSSDVGGYNYVSWYQQHPGKAPKLMIYDVSNRPSGVSNRFSGSKSGNTASLTISGLQAEDEADYYCSSYTSSSTFYVFGTGTKVTVLG
For the molecule B5, the “IC50 of inhibition of cell proliferation (BaF3 cells expressing MPL/mutCALR Type 1)” value in assay [4] came to 0.201 µg/mL.

B6: anti-mutCALR antibody clone 40 (antibody, human IgG1, lambda, V domains shown)
VH: EVQLVQSGAEVKKPGASVKVSCKVSGYTLTESSMHWVRQAPGKGLEWMGLVDPEDGETIYAQKFQGRVTMTEDTSTDTAYMELSSLRSEDTAVYYCAREEWSGDGDDAFDIWGQGTMVTVSS
VL: QSVLTQPPSVSAAPGQKVTISCSGSSSNIGSYSVSWYQQLPGTAPKLLIYDNNKRPSGIPDRFSGSNSGTSATLGITGLQTGDEADYYCGTWDSSLSAWVFGGGTKLTVLG
For B6, in assay [2], the “Log IC50 of inhibition of cell proliferation, antibody + ruxolitinib (Ba/F3-TPOR/mutCALR type 1 cells); extrapolated from fitted curve” value was -1.59 Log IC50 (µg/mL). Moreover, the “IC50 of inhibition of cell proliferation (Ba/F3 cells with MPL and mutCALR Type 1)” value in assay [3] was determined as 0.0384 µg/mL.

B7: anti-mutCALR antibody clone 41 (antibody, human IgG1, lambda, V domains shown)
VH: EVQLVQSGAEVKKPGASVKVSCKVSGYTLTELSMHWVRQAPGKGLEWMGLVDPEDGETIYAQKFQGRVTMTEDTSTDTAYMELSSLRSEDTAVYYCAREEWSGDGDDAFDIWGQGTMVTVSS
VL: QSVLTQPPSVSAAPGQKVTISCSGSSSNIGSYSVSWYQQLPGTAPKLLIYDNNKRPSGIPDRFSGSNSGTSATLGITGLQTGDEADYYCGTWDSSLSAWVFGGGTKLTVLG
Take B7: the “IC50 of inhibition of cell proliferation (Ba/F3 cells with MPL and mutCALR Type 1)” value in assay [3] was 0.342 µg/mL. In assay [4], the “IC50 of inhibition of cell proliferation (BaF3 cells expressing MPL/mutCALR Type 1)” value was determined as 3.98 µg/mL.
